PMC10772121 (Scientific Reports, 2024)
Several values for one entry are separate records, joined by “and”; a condition that tells them apart may be missing. Identical values can stand only once.

Tests used:
Details in all cases: both partners purified
KIR2DL3 D47N ectodomain = biological target: T1, KIR2DL3 D47N ectodomain (Homo sapiens, UniProt P43628-1, D47N); assay: BLI; lirilumab (IgG1) loaded on AHC biosensors, KIR2DL3 D47N as analyte (peak concentration 500 nM); Octet RED384, 25 °C, 20 mM MOPS pH 7.5, 150 mM NaCl, 0.1% BSA, 0.02% Tween-20; steady state binding model because the 1:1 model fitted poorly; single replicates
T1 construct: also called KIR2DL3 D47N (293F); Var6; source: HEK 293F supernatant, purified (EDTA-resistant Ni-NTA, size exclusion chromatography)

[1] = biological target: T2, KIR2DL1 (Sino Biological 13,145-H08H) (Homo sapiens; allele of bought protein …, UniProt P43626-1); assay: BLI; lirilumab (IgG1) loaded on AHC (anti-human IgG) biosensors, KIR protein as analyte (two-fold dilutions from 250 nM); Octet RED384, 25 °C, 20 mM MOPS pH 7.5, 150 mM NaCl, 0.1% BSA, 0.02% Tween-20; global 1:1 binding model, at least 4 curves; single replicates
T2 construct: human KIR2DL1, commercially sourced recombinant protein; The catalogue product is recalled to be the extracellular domain with a C-terminal His tag; also called KIR2DL1 (293, Sino Biological); source: bought: Sino Biological 13,145-H08H (293)

KIR2DL3 F45Y ectodomain = biological target: T3, KIR2DL3 F45Y ectodomain (Homo sapiens, UniProt P43628-1, F45Y); assay: as above
T3 construct: also called KIR2DL3 F45Y (293F); Var4; source: HEK 293F supernatant, purified (EDTA-resistant Ni-NTA, size exclusion chromatography)

KIR2DL3 ectodomain = biological target: T4, KIR2DL3 ectodomain (Homo sapiens, UniProt P43628-1); assay: as above
T4 construct: also called wild-type KIR2DL3; KIR2DL3 (293F); source: HEK 293F supernatant, purified (EDTA-resistant Ni-NTA, size exclusion chromatography)

KIR2DL3 H50R ectodomain = biological target: T5, KIR2DL3 H50R ectodomain (Homo sapiens, UniProt P43628-1, H50R); assay: as above
T5 construct: also called KIR2DL3 H50R (293F); Var7; source: HEK 293F supernatant, purified (EDTA-resistant Ni-NTA, size exclusion chromatography)

KIR2DL3 D47N = biological target: T6, KIR2DL3 D47N (Homo sapiens, UniProt P43628-1, D47N); assay: BLI; lirilumab (IgG1) loaded on anti-human IgG (AHC) biosensors, KIR2DL3 D47N as analyte, two-fold dilutions from 500 nM; 25 °C; 20 mM MOPS pH 7.5, 150 mM NaCl, 0.1% BSA, 0.02% Tween-20; steady state equilibrium model (kinetic fit unsuccessful); average of 3 technical replicates
T6 construct: also called KIR2DL3 D47N variant; KIR2DL3 D47N mutant; source: HEK 293F, purified as the CHO-S protein (HisTrap FF)

[2] = biological target: T7, Commercially sourced KIR2DL1 (Sino Biological 13,145-H08H) (Homo sapiens; allele of bought protein …, UniProt P43626-1); assay: BLI; lirilumab (IgG1) loaded on anti-human IgG (AHC) biosensors, KIR protein as analyte, 6 two-fold dilutions from 250 nM; 25 °C; 20 mM MOPS pH 7.5, 150 mM NaCl, 0.1% BSA, 0.02% Tween-20; global 1:1 fit; average of 3 technical replicates
T7 construct: KIR2DL1, commercially sourced recombinant protein; source: bought: Sino Biological

KIR2DL3 F45Y = biological target: T8, KIR2DL3 F45Y (Homo sapiens, UniProt P43628-1, F45Y); assay: as above
T8 construct: also called KIR2DL3 F45Y variant; source: HEK 293F, purified as the CHO-S protein (HisTrap FF)

[3] = biological target: T9, wild-type KIR2DL3 ectodomain (HEK 293F) (Homo sapiens, UniProt P43628-1); assay: as above
T9 construct: Same construct as m3 but expressed in HEK 293F cells for BLI; source: HEK 293F, purified as the CHO-S protein (HisTrap FF)

KIR2DL3 H50R = biological target: T10, KIR2DL3 H50R (Homo sapiens, UniProt P43628-1, H50R); assay: as above
T10 construct: also called KIR2DL3 H50R variant; source: HEK 293F, purified as the CHO-S protein (HisTrap FF)
T10 sequence (P43628 22-245 H71R): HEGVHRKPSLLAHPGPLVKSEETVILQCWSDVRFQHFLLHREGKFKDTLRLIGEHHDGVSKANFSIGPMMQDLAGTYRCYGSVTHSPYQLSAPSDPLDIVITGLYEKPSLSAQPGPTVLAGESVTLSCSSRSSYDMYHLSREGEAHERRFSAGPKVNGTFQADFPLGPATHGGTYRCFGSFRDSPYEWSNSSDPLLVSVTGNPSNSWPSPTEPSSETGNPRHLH

T2 sequence (P43626 22-245): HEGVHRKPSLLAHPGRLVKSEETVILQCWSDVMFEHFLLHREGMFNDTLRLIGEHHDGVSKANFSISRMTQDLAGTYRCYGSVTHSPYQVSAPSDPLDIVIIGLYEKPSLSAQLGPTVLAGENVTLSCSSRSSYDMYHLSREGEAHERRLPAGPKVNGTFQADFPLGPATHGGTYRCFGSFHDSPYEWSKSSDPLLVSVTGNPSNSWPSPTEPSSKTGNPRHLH
T5 sequence (P43628 22-245 H71R): as the sequence (P43628 22-245 H71R) above
T3 sequence (P43628 22-245 F66Y): as the sequence (P43628 22-245 H71R) above, with F45Y, R50H counted along it
T4 sequence (P43628 22-245): as the sequence (P43628 22-245 H71R) above, with R50H counted along it
T1 sequence (P43628 22-245 D68N): as the sequence (P43628 22-245 H71R) above, with D47N, R50H counted along it
T7 sequence (P43626 22-245): as the sequence (P43626 22-245) above
T6 sequence (P43628 22-245 D68N): as the sequence (P43628 22-245 H71R) above, with D47N, R50H counted along it
T8 sequence (P43628 22-245 F66Y): as the sequence (P43628 22-245 H71R) above, with F45Y, R50H counted along it
T9 sequence (P43628 22-245): as the sequence (P43628 22-245 H71R) above, with R50H counted along it

Kd (KIR2DL3 D47N ectodomain)	Kd [1]	koff [1]	kon [1]	Kd (KIR2DL3 F45Y ectodomain)	koff (KIR2DL3 F45Y ectodomain)	kon (KIR2DL3 F45Y ectodomain)	Kd (KIR2DL3 ectodomain)	koff (KIR2DL3 ectodomain)	kon (KIR2DL3 ectodomain)	Kd (KIR2DL3 H50R ectodomain)	koff (KIR2DL3 H50R ectodomain)	kon (KIR2DL3 H50R ectodomain)	Kd (KIR2DL3 D47N)	Kd [2]	Kd (KIR2DL3 F45Y)	Kd [3]	Kd (KIR2DL3 H50R)	Binder
1400 nM and 1900 nM	11.5 nM and 9.6 nM and 8.8 nM	0.000954 s⁻¹ and 0.000995 s⁻¹ and 0.000947 s⁻¹	83200 M⁻¹ s⁻¹ and 104000 M⁻¹ s⁻¹ and 107000 M⁻¹ s⁻¹	10.2 nM and 10.8 nM and 8.5 nM	0.00125 s⁻¹ and 0.00155 s⁻¹ and 0.00145 s⁻¹	122000 M⁻¹ s⁻¹ and 144000 M⁻¹ s⁻¹ and 170000 M⁻¹ s⁻¹	1.64 nM and 2.83 nM and 3.78 nM	0.000366 s⁻¹ and 0.000622 s⁻¹ and 0.000892 s⁻¹	224000 M⁻¹ s⁻¹ and 220000 M⁻¹ s⁻¹ and 236000 M⁻¹ s⁻¹	7.98 nM and 10.6 nM and 15 nM	0.00195 s⁻¹ and 0.00244 s⁻¹ and 0.00317 s⁻¹	244000 M⁻¹ s⁻¹ and 231000 M⁻¹ s⁻¹ and 212000 M⁻¹ s⁻¹						lirilumab (IgG1) (antibody, V domains shown) VH: QVQLVQSGAEVKKPGSSVKVSCKASGGTFSFYAISWVRQAPGQGLEWMGGFIPIFGAANYAQKFQGRVTITADESTSTAYMELSSLRSDDTAVYYCARIPSGSYYYDYDMDVWGQGTTVTVSS VL: EIVLTQSPVTLSLSPGERATLSCRASQSVSSYLAWYQQKPGQAPRLLIYDASNRATGIPARFSGSGSGTDFTLTISSLEPEDFAVYYCQQRSNWMYTFGQGTKLEIK [lirilumab (IgG1), listing 1 of 2 here]
													1650 nM	10 nM	9.9 nM	2.8 nM	11.2 nM	lirilumab (IgG1) (antibody, V domains shown) VH: QVQLVQSGAEVKKPGSSVKVSCKASGGTFSFYAISWVRQAPGQGLEWMGGFIPIFGAANYAQKFQGRVTITADESTSTAYMELSSLRSDDTAVYYCARIPSGSYYYDYDMDVWGQGTTVTVSS VL: EIVLTQSPVTLSLSPGERATLSCRASQSVSSYLAWYQQKPGQAPRLLIYDASNRATGIPARFSGSGSGTDFTLTISSLEPEDFAVYYCQQRSNWMYTFGQGTKLEIK [lirilumab (IgG1), listing 2 of 2 here]
